± gives the standard deviation of the averaged measurements.
Tested on: Saccharomyces cerevisiae
Test: protein stability index of tFT-peptide fusion (C-terminal peptide) (PSI (0-1 scale)); higher = more stable (slower turnover)
Conditions: genetic background: wild type; temperature: 30 C
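Note: PSI is a weighted mean of sequencing reads over stability bins, variants kept only with over 10 reads, mCherry proximal and sfGFP distal, peptide attached via GGGS linker.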

| Sequence | protein stability index |
| --- | --- |
| VCGWGFLLGVFV | 0.5107 ± 0.0022 |
| DKGIHKREKFFT | 0.734 ± 0.0054 |
| FSHRPSPLSLSL | 0.719 ± 0.11 |
| LLIYALPQGTHL | 0.68 ± 0.048 |
| PLQFLPPLPCVS | 0.539 ± 0.039 |
| FYCSWGGNDVDN | 0.692 ± 0.075 |
| GWSGCNWCIGVG | 0.584 ± 0.018 |
| SPRLPAPPPPPQ | 0.702 ± 0.075 |
| SCFLAFSFLCLF | 0.5 ± 0.0096 |
| VAWAGRGPGRSG | 0.713 ± 0.024 |
| RQRSTGGISNRS | 0.718 ± 0.043 |
| GGDVHGEGNVCG | 0.698 ± 0.027 |
| GQKKARGRGGGM | 0.737 ± 0.0077 |
| TFLMEMVPRLFI | 0.664 ± 0.036 |
| SYGWYRVRLLDC | 0.57 ± 0.088 |
| RTRPAMSRCSKR | 0.704 ± 0.045 |
| GPGSCPVRLCGF | 0.661 ± 0.0074 |
| GRKGVIAELIKI | 0.659 ± 0.11 |
| IINKRYEFRERT | 0.764 ± 0.03 |
| SLSSRSVSLFKF | 0.806 ± 0.13 |
| LLHPLPPPSYPP | 0.689 ± 0.01 |
| ILTAVFAVPILP | 0.57 ± 0.04 |
| SGRMAIYVFGVV | 0.579 ± 0.01 |
| PYPNAQRIEIKF | 0.651 ± 0.026 |
| KASEALGYTSNE | 0.675 ± 0.037 |
| WGLGVGGCGWVG | 0.67 ± 0.018 |

| Sequence | protein stability index |
| --- | --- |
| EGLVRVCSRHYR | 0.67 ± 0.0083 |
| GAGAVRPPARAS | 0.699 ± 0.059 |
| YSSLLPLSSPSG | 0.684 ± 0.04 |
| SPTPTSLTPPDF | 0.733 ± 0.049 |
| SAKQTYFKRVAQ | 0.66 ± 0.042 |
| SPFLSLPHPSFP | 0.6053 ± 0.0013 |
| PHSPSSPTIPSS | 0.7363 ± 0.0069 |
| CRILSPLPAIFV | 0.5298 ± 0.0045 |
| SPSPPSNPLPSP | 0.701 ± 0.024 |
| PPPRLNPLPPAC | 0.731 ± 0.066 |
| VKSFRFPHPVWN | 0.682 ± 0.011 |
| GLGACMVNELLG | 0.648 ± 0.018 |
| TKTKKKTQEGSR | 0.739 ± 0.1 |
| SMWNFPRLAKTR | 0.685 ± 0.018 |
| NTKEETKESRGR | 0.713 ± 0.059 |
| LGGGVVCGVWGG | 0.704 ± 0.03 |
| LGILSERIGRAL | 0.7713 ± 0.0036 |
| LCGPKIGFVVSR | 0.704 ± 0.04 |
| RVTRPSARLLSP | 0.639 ± 0.084 |
| CGVSPPHANLVS | 0.569 ± 0.036 |
| ENRGIEITGKRS | 0.727 ± 0.022 |
| APWSVSAGCFLF | 0.687 ± 0.036 |
| CFGFAGVGSLSC | 0.752 ± 0.13 |
| GTQSGGGGGKGG | 0.683 ± 0.044 |
| PPPPSVCPRFPI | 0.785 ± 0.12 |
| PLPGPSPPPAPP | 0.648 ± 0.044 |

| Sequence | protein stability index |
| --- | --- |
| LVWGGVWGAPCR | 0.774 ± 0.034 |
| KDKKERTTEKKT | 0.693 ± 0.13 |
| QAVTSVGTTNIV | 0.689 ± 0.023 |
| HIGDLRDSCFIS | 0.693 ± 0.031 |
| TPPPPAPSPPPP | 0.761 ± 0.059 |
| EAVNLDSWAAGQ | 0.828 ± 0.058 |
| GGGGMVVGEVVG | 0.685 ± 0.038 |
| NQDIKAENTIKL | 0.668 ± 0.057 |
| LFPCPSMTLPRL | 0.706 ± 0.017 |
| IKYEKENNINKI | 0.679 ± 0.039 |
| LWGGPLLLPVCL | 0.577 ± 0.013 |
| MEAERRKEGENS | 0.673 ± 0.072 |
| PGGTDGYSGLEK | 0.689 ± 0.011 |
| TTRALEAPARPN | 0.6518 ± 0.0054 |
| GLGGRVWSDMGG | 0.745 ± 0.11 |
| SLTLAHPGVDLA | 0.709 ± 0.021 |
| CLFPPYDYFFPF | 0.734 ± 0.091 |
| INRGGLVRGFGS | 0.725 ± 0.17 |
| PPPVPPRFAVRP | 0.6678 ± 0.0015 |
| CPPPPPRPPLPP | 0.689 ± 0.056 |
| FPPPLHFPPLPA | 0.723 ± 0.055 |
| SISFPPPPRSLT | 0.719 ± 0.08 |
| SSPLPPSLPSSR | 0.671 ± 0.025 |
| PLSPLALLPLRF | 0.694 ± 0.065 |
| CMEYFMHFVKGD | 0.701 ± 0.06 |
| PLPMPHPRSRST | 0.673 ± 0.014 |

| Sequence | protein stability index |
| --- | --- |
| ESAGPSIYKLVT | 0.638 ± 0.0092 |
| DIISSKENWVEI | 0.68 ± 0.059 |
| PSAPPPSPLGRT | 0.738 ± 0.059 |
| LIAACSFPRSSI | 0.716 ± 0.067 |
| LGSSGVVGYHLD | 0.71 ± 0.054 |
| AGGGGGVTASGA | 0.71 ± 0.063 |
| FGGTAVAGLFDL | 0.725 ± 0.061 |
| QKKKKLAYVGKR | 0.659 ± 0.012 |
| GRPFCLGVKMFL | 0.673 ± 0.035 |
| PRDLRVVRLTSA | 0.63 ± 0.022 |
| PPPPPPLPSLPR | 0.678 ± 0.089 |
| RRPLAPHPPLPP | 0.678 ± 0.01 |
| KIDKLRKRQRKK | 0.664 ± 0.017 |
| PSLVGRVWLEFV | 0.691 ± 0.061 |
| AFTLQSRLSSPS | 0.655 ± 0.012 |
| RYYNDKKEKNIL | 0.706 ± 0.0085 |
| RGALGVVWSGLD | 0.637 ± 0.023 |
| PPLPSPLCPQPP | 0.714 ± 0.032 |
| LLALSPLSSYAL | 0.711 ± 0.084 |
| GARGLVGHWRRG | 0.615 ± 0.035 |
| VDDIIGIRKRNT | 0.691 ± 0.07 |
| GGGGGSMDLRDR | 0.697 ± 0.0076 |
| PISLFLSSSAPL | 0.729 ± 0.053 |
| TLPSPPSPSPRP | 0.679 ± 0.085 |
| PPPRARPHAPPL | 0.653 ± 0.017 |
| FGQSKFAMKGVR | 0.708 ± 0.0086 |

| Sequence | protein stability index |
| --- | --- |
| LPPRSPSPHPHR | 0.68 ± 0.0078 |
| ARRRINKKIKKV | 0.554 ± 0.018 |
| RLPPPPSPPPPP | 0.688 ± 0.016 |
| ASSPLFLPAIQP | 0.63 ± 0.06 |
| LPRHKWLPSGLG | 0.686 ± 0.056 |
| GDRGFTTEAGNC | 0.67 ± 0.018 |
| LFQFFSPCRIPE | 0.749 ± 0.011 |
| ETCIWDGRPIAS | 0.723 ± 0.085 |
| NYAMRGSVRTDK | 0.665 ± 0.028 |
| GMVTCTSPRCHK | 0.694 ± 0.016 |
| GCQLLSEVSVCL | 0.667 ± 0.0079 |
| ESIQGRHRMSCL | 0.6912 ± 0.006 |
| GGTGGWVVNRGV | 0.706 ± 0.079 |
| GRRRGGAVVEGV | 0.678 ± 0.01 |
| DRLTLEKKGRGM | 0.684 ± 0.016 |
| SEGKQYITGRWK | 0.702 ± 0.084 |
| IHSPCAMRPLIS | 0.672 ± 0.0087 |
| RPFPLTRPTLLF | 0.67 ± 0.016 |
| VFATRALSQRLI | 0.526 ± 0.011 |
| AAPKSGARASLW | 0.728 ± 0.084 |
| PASPLFAPSVVP | 0.747 ± 0.0086 |
| RADQGGVVNGEG | 0.732 ± 0.055 |
| RAKRMVGQTIQE | 0.765 ± 0.18 |
| HVLRMFTGFLFC | 0.624 ± 0.044 |
| PRPPPRRPDFGL | 0.825 ± 0.16 |
| SLPLPPCLSPLQ | 0.723 ± 0.054 |

| Sequence | protein stability index |
| --- | --- |
| PLPAPPLPPRSP | 0.703 ± 0.012 |
| APHPTPYVRRHC | 0.74 ± 0.041 |
| PPPRLPSRPPPP | 0.716 ± 0.032 |
| EAAVTESVTGKR | 0.679 ± 0.0088 |
| CFGFSLKFGTGK | 0.668 ± 0.033 |
| VIGAGTGCVVVG | 0.72 ± 0.013 |
| GRGEIQDRRCRG | 0.668 ± 0.049 |
| PESRAESAKPRD | 0.667 ± 0.019 |
| GIVFRGVVTWLL | 0.6 ± 0.0085 |
| EVRCVFTGWHSS | 0.785 ± 0.096 |
| IQLPPPYATPPS | 0.645 ± 0.012 |
| GGARVAVCEGGE | 0.771 ± 0.026 |
| GCCACDIGGEGG | 0.642 ± 0.0079 |
| VVTFSRSDIVLR | 0.694 ± 0.076 |
| HAAWQHPNTTQV | 0.714 ± 0.013 |
| FRLICSRQFFAG | 0.593 ± 0.018 |
| TVIKMEKKKDGG | 0.6691 ± 0.0047 |
| WRCAGGGGVGGG | 0.6956 ± 0.0011 |
| PLPWIFHCRAPL | 0.719 ± 0.048 |
| YACADVSDPLSV | 0.721 ± 0.019 |
| LYNFLFLLPYSL | 0.647 ± 0.13 |
| KTRKKEKKPSRK | 0.6233 ± 0.0036 |
| EKNDKEYKRSIS | 0.665 ± 0.06 |
| RVFGSFLSGEQF | 0.70035 ± 0.00058 |
| GSVGFRTGRHLV | 0.615 ± 0.063 |
| RVMELEGRSKLK | 0.633 ± 0.026 |

| Sequence | protein stability index |
| --- | --- |
| EYYRYLPVLIRL | 0.467 ± 0.055 |
| PSAQPPPRPTRP | 0.6878 ± 0.0036 |
| VFGRQVRVNGGS | 0.707 ± 0.043 |
| RARSFINSFSQS | 0.671 ± 0.018 |
| DGYYRIVRPEAI | 0.626 ± 0.018 |
| HIVSRKYNYPCT | 0.739 ± 0.088 |
| GGWPREVVGRGG | 0.671 ± 0.09 |
| MGVYAVVGTHGV | 0.687 ± 0.079 |
| PLPSPPPSATSL | 0.602 ± 0.045 |
| EIVTQQKIMDKK | 0.711 ± 0.012 |
| YYRARRFRQSRR | 0.709 ± 0.077 |
| VLFEARFSLRQS | 0.6768 ± 0.0044 |
| PPPFPSPLPPPP | 0.678 ± 0.0097 |
| REGALVYWGFLG | 0.652 ± 0.018 |
| SLALSSPLPPPP | 0.735 ± 0.042 |
| PLPPPPYPPTLL | 0.592 ± 0.016 |
| LGLFGSVVVCGQ | 0.65 ± 0.015 |
| RYRPSPPPPPPH | 0.762 ± 0.054 |
| VREVTIGGGLGE | 0.707 ± 0.0087 |
| GQIVFDNSGSRW | 0.6955 ± 0.0028 |
| LGAMTQEADGTG | 0.639 ± 0.078 |
| LLPSPLPPLLRL | 0.6494 ± 0.0018 |
| PPSPPPPPRPPP | 0.583 ± 0.019 |
| VSVGGVWGQCVA | 0.6618 ± 0.0047 |
| TPPLPPPPPPIH | 0.7413 ± 0.0029 |
| VRRFRYCLGFFR | 0.663 ± 0.059 |

| Sequence | protein stability index |
| --- | --- |
| KSVGKGIIQLRL | 0.726 ± 0.042 |
| LQFAQLLDISIT | 0.696 ± 0.062 |
| YSSALLHPTSPV | 0.655 ± 0.064 |
| FSAVRIQASLRW | 0.629 ± 0.028 |
| PPSHPLTIRPPL | 0.663 ± 0.014 |
| GGDWVGHVLDLW | 0.708 ± 0.012 |
| PPPRPPLPPPLP | 0.692 ± 0.032 |
| VSCLPFLDLMSW | 0.701 ± 0.012 |
| EAKRSRCESAEI | 0.672 ± 0.01 |
| LFSHLLFPWLSR | 0.7545 ± 0.0048 |
| GAWVFLSSRVVH | 0.7227 ± 0.0054 |
| PFPPPTPPPPLP | 0.751 ± 0.077 |
| PPFPARPRPHPV | 0.6623 ± 0.0056 |
| VGQVVTCFMSDA | 0.678 ± 0.028 |
| SPPTCPNQLGPP | 0.7 ± 0.074 |
| ASVIWGGFSDSR | 0.719 ± 0.015 |
| LSILSIHAHRAN | 0.665 ± 0.099 |
| RPPCFRPPPPPL | 0.715 ± 0.072 |
| VDSSGSQPRGNR | 0.648 ± 0.039 |
| KLCGIYMVGGKK | 0.65093 ± 0.00038 |

— the supplement of paper PMC10724198
